{
  "source": "paper PMC9146136",
  "about": "(2022)",
  "binders": {"B1": {"name": "extracellular domain of mTNFα (mTNFα ECD, 77-235aa) (domain or fragment)", "chain": "TLTLRSSSQNSSDKPVAHVVANHQVEEQLEWLSQRANALLANGMDLKDNQLVVPADGLYLVYSQVLFKGQGCPDYVLLTHTVSRFAISYQEKVNLLSAVKSPCPKDTPEGAELKPWYEPIYLGGVFQLEKGDQLSAEVNLPKYLDFAESGQVYFGVIAL", "modifications": "biotin (biotin-NHS labeling reaction) in the BLI assay only"}},
  "target": "anti-mTNFα 3B11 VNAR (soluble, purified)",
  "assay": "BLI",
  "data": [
    {"binder": "B1", "values": [
      {"measurement": "koff", "value": "2.69e-05", "unit": "s⁻¹"}
    ]}
  ]
}
